Measurements from patent US20220235138A1, “CAR-T CELLS TARGETING IL-1RAP AND THEIR USE IN ACUTE MYELOID LEUKEMIA (AML)” (ETABLISSEMENT FRANCAIS DU SANG, priority 2019, published 2022).

What was measured:
IL-1RAP = test: Western blotting and cell surface staining of AML cell lines; format: binding, human
Source text: Whole cellular lysates of different AML or CML (positive control) hematopoietic cell lines were separated by polyacrylamide gel electrophoresis and electrotransferred onto polyvinylidene difluoride membranes. Membranes were probed overnight with primary IL-1RAP #A3C3 (diluted at 1:20). Twenty micrograms of protein were electrophoresed on sodium dodecyl-sulfate polyacrylamide gels (SDS-PAGE), and then sonicated protein fractions were suspended in RIPA buffer supplemented with a protease inhibitor cocktail (complete Mini EDTA-free; Roche, Bale, Switzerland). Protein load in the western blot lane was evaluated with β-actin mAb staining (1:1000, clone AC15, #A5441, Sigma-Aldrich). Immunodetection staining was performed with a secondary polyclonal antibody sheep anti-mouse IgG (#515-035-062, Jackson). Enhanced chemiluminescence detection reagents allowed detection with a camera and Bio-1D software (Vilber-Lourmat, Collegien, France).
IL-1RAP cell surface staining of different hematopoietic AML cell lines was performed, using #A3C3 mAb and IL-1RAP murine mAb as staining comparison.
Relative Fluorescence Intensity (RFI) between IL-1RAP staining and isotype was calculated. IL-1RAP+ (KU812) or IL-1RAP-(Raji) cell lines were used as positive or negative controls respectively.

[1] = system: healthy hematopoietic cells (HSCs, monocytes); test: IL-1RAP cell surface staining of healthy donor peripheral blood and bone marrow cells; format: binding
Method: (A) IL-1RAP cell surface expression on peripheral blood (left) or bone marrow (right) cells from healthy donors (n=5). SSC-A/CD45+ allowed discrimination of subpopulations as lymphocytes (SSC-A low), monocytes (CD33+), granulocytes (SSC-A high), or HSCs (CD33−/CD34+). RFI was calculated from isotype staining and provided in each window. (B) Representative (1 of 3) IL-1RAP staining of whole human cord blood cells. IL-1RAP staining is provided for whole CD34+, CD34+/CD38−, and CD34+/CD38+ HSC cord blood subpopulations. (C) IL-1RAP-positive cells among CD34+ cells in cord blood (CB, n=5) or bone marrow (BM) from healthy donors (n=5) compared to CD34+ cells from the BM (n=10) or peripheral blood (PB, n=10) from CML patients. […] Percentages were calculated using absolute cell number determined using Trucount tubes based on 5000 fluorescent-bead cytometry acquisition. (F) Left, Gating strategy and analysis for absolute count of CID AP1903-induced cell death. […] The quantification was performed after acquiring 5000 fluorescent beads. Killing efficiency was normalized to control cells (untreated cells). Cell killing was calculated as follows: % Dead cells=[1−(absolute number of viable cells in AP1903-treated cells/absolute number of viable cells in untreated cells)]×100. (D) Absolute percentage of mortality. 24 h or 48 h C0 or IL-1RAP CAR (gated on CD3+/CD19+) T cell CID exposure. […]

[2] = system: HMEC-1 endothelial cell line; test: Flow cytometry staining of HMEC-1 dermal endothelial cell line; format: binding, human; details: microvascular HMEC-1 endothelial cell line
Source text: FIG. 13: (A) Tissue microarray. Representative #A3C3 staining of an US Food and Drug Administration standard frozen tissue array, including 90 tissue cores (30 organs) of 3 individual donors per organ (US Biomax, Rockville, Md., USA). Immunostaining was detected using the UltraView Universal DAB Detection Kit (Ventana, USA). Images were acquired and analyzed with NDP.view 2.0 software. […] (Scale bars, 100 μm.) High IL-1RAP (KU812) or negative (Raji)-expressing cell lines were respectively used as positive or negative controls. (B) IL-1RAP R&D (red) or #A3C3 (blue) staining of HMEC-1 dermal endothelial cell line. Isotype IgG1 (gray) is depicted as overlay. RFI is provided for both staining.
In order to predict off-target toxicity, we used the #A3C3 mAb to investigate IL-1RAP expression using a tissue macroarray (TMA) of 30 normal human tissues.

AML blasts = test: Flow cytometry on primary cells from AML patients; format: cell-based, human; details: all subtypes, n=30
Source text: FIG. 3: Flow cytometry-gating strategy on AML primary samples of patients. RFI is provided for blasts and monocytes subpopulations (Left). Percentage of IL-1RAP+ within AML blasts and monocytes, CD123+ and IL-1RAP+/CD123+ cells within AML Blasts in a cohort of routine AML (all subtypes) patients (n=30) (Right, up). RFI is also provided (Right, bottom).
For primary samples of bone marrow or peripheral bloods of AML patients, the murine IL-1RAP mAb (#E3C3) was included in a panel allowing to detect CD45, CD34, CD38, CD33, CD123, and CD14 (for monocytes). Stained cells were collected by a CANTO II cytometer (BD Biosciences, Le Pont-de-Claix, France) and analyzed by DIVA 6.1 software (BD Biosciences, Le Pont-de-Claix, France).

[3] = molecular target: T1, IL-1RAP recombinant protein (Homo sapiens, UniProt Q9NPH3); test: ELISA detection of recombinant IL-1RAP protein; format: binding
T1 construct: recombinant fusion protein consisting of the extra cellular part of IL-1RAP (NM_002182.2, NCBI) and the Fc-part of human IgG1; purchased R&D Systems
T1 sequence (Q9NPH3 21-367 limits assumed): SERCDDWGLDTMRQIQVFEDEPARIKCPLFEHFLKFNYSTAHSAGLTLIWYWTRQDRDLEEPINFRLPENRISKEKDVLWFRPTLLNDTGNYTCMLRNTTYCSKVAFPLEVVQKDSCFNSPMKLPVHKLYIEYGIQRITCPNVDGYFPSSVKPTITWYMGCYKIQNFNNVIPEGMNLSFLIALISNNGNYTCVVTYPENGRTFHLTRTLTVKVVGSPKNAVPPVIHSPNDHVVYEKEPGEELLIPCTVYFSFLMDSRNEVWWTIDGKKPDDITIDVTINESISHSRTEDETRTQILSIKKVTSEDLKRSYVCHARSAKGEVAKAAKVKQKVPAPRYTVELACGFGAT
Source text: Anti-human Fc antibody was coated on a bottom of a plastic ELISA plate.

Chain of IL-1RAP (Q9NPH3 21-570): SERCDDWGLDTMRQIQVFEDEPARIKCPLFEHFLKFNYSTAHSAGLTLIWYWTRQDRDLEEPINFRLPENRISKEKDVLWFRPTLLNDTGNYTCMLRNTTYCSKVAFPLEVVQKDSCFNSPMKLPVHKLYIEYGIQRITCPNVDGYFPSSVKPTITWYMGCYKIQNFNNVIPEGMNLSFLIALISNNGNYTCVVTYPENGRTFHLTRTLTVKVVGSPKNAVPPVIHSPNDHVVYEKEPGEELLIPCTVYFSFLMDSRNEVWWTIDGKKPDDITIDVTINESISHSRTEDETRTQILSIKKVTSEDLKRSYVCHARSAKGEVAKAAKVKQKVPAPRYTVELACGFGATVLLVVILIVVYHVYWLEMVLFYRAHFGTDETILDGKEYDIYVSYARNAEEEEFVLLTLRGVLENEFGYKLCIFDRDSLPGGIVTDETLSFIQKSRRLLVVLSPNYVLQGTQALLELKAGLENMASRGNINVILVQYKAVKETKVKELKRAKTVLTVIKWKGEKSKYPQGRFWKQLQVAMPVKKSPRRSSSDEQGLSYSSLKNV

B1: #A3C3: mouse anti-hIL-1RAP monoclonal antibody generated by standard hybridoma technique; VH SEQ ID No 2, VL SEQ ID No 4 (antibody, V domains shown)
VH: MGWSCIILFLVATATGVNSQVQLQQPGAELMMPGASVKVSCEASGYTFTDSWMHWVKQRPGQGLEWIGAIDPSDSYTTYNQKFTGKATLSVDESSNTAYMQLSSLTSEDSAVYYCARYYSGSNYISPFPYWGQGTLVTVSA
VL: MESQIQVFVFVFLWLSGVDGDIVMTQSHKFMSTSVGDRVTITCKASLDVSTAVAWYQQKPGQSPKLLIYSASYRYTGVPDRFTGSGSGTDFTFTISSVQAEDLAVYYCQQHYSPPFTFGSGTNLEIK
modifications: Amino acid sequence of chain H (VH) of murine scFv anti-IL-1RAP; Amino acid sequence of chain K (VL) of murine scFv anti-IL-1RAP
- staining of AML cell lines expressing IL-1RAP at the cell surface (IL-1RAP): able to stain different AML cell lines
- RFI ([1]; HSCs in bone marrow from healthy donors, n=5): < 1.2
- RFI ([1]; monocyte subpopulation, weak staining in 2/5 peripheral blood and 3/5 bone marrow from healthy donors): < 2
- recognition of cell surface IL-1RAP on HMEC-1 [2]: not recognized
- presence of IL-1RAP on AML blasts, percentage (AML blasts): 84.27±17.4%
- recognition of IL-1RAP recombinant protein [3]: recognize the IL-1RAP recombinant protein
